Assay results reported in patent US20250002564A1 (HOSPITAL FOR SICK CHILDREN, published 2025).
Where two headings read alike, the source gives them in different places.

Key:
[1] = biological target: T1, SARS-CoV-2 receptor binding domain (RBD), wild type, His-tagged (SARS-CoV-2, UniProt P0DTC2 319-541); assay: BLI competition on His-tagged RBD, after 1st Ab 80
T1 construct: domain: RBD; also called His-tagged RBD; BEI NR52309

[2] = biological target: T1, SARS-CoV-2 receptor binding domain …; assay: BLI competition on His-tagged RBD, after 1st Ab 46
[3] = biological target: T1, SARS-CoV-2 receptor binding domain …; assay: BLI competition on His-tagged RBD, after 1st Ab 236
[4] = biological target: T1, SARS-CoV-2 receptor binding domain …; assay: BLI competition on His-tagged RBD, after 1st Ab 52
[5] = biological target: T1, SARS-CoV-2 receptor binding domain …; assay: BLI competition on His-tagged RBD, after 1st Ab 82
[6] = biological target: T1, SARS-CoV-2 receptor binding domain …; assay: BLI competition on His-tagged RBD, after 1st Ab 298
[7] = biological target: T1, SARS-CoV-2 receptor binding domain …; assay: BLI competition on His-tagged RBD, after 1st Ab 324
[8] = biological target: T1, SARS-CoV-2 receptor binding domain …; assay: method and format not given
[9] = biological target: T1, SARS-CoV-2 receptor binding domain …; assay: method and format not given; remark: listed apart in the source
[10] = biological target: T2, SARS-CoV-2 prefusion S ectodomain (Spike trimer), His-tagged (SARS-CoV-2, UniProt P0DTC2 14-1213); assay: BLI, His-tagged Spike on Ni-NTA sensor
T2 construct: extracellular domain; also called SARS-CoV-2 Spike; S protein

B1: mAb 46 (antibody, V domains shown)
VH: EVQLLESGGGLVQPGRSLRLSCAASGFTFSSYAMSWVRQAPGKGLEWVSTIYSGGSTYYADSVKGRFTISRDNSKNTLYLQMNSLRAEDTAVYYCARGDSRDAFDIWGQGTMVTVSS
VL: DIQMTQSPSSLSASVGDRVTITCRASQSISSWLAWYQQKPGKAPKLLIYDASNLETGVPSRFSGSGSGTDFTLTISSLQPEDFATYYCQQSYSTPFTFGPGTKVDIKR
notes: also called IgG 46; Antibody 46
[1]
  RBD binding of 2nd Ab after 1st Ab (heat map): 1.3
[2]
  RBD binding of 2nd Ab after 1st Ab (heat map): 0.2
[3]
  RBD binding of 2nd Ab after 1st Ab (heat map): 1.7
[4]
  RBD binding of 2nd Ab after 1st Ab (heat map): 0.2
[5]
  RBD binding of 2nd Ab after 1st Ab (heat map): 1.2
[6]
  RBD binding of 2nd Ab after 1st Ab (heat map): 1.7
[7]
  RBD binding of 2nd Ab after 1st Ab (heat map): 1.7
[8]
  Kd: 83 nM
[9]
  Kd: 83 nM

B2: mAb 52 (antibody, V domains shown)
VH: QVQLVQSGAEVKKPGSSVKVSCKASGYTFTSYGISWVRQAPGQGLEWMGGIIPMFGTTNYAQKFQGRVTITADKSTSTAYMELSSLRSEDTAVYYCARDRGDTIDYWGQGTLVTVSS
VL: DIQMTQSPSSLSASVGDRVTITCRASQGISNNLNWYQQKPGKAPKLLIYAASSLESGVPSRFSGSGSGTDFTLTISSLQPEDFATYYCQQGNGFPLTFGPGTKVDIKR
notes: also called IgG 52; Antibody 52
[1]
  RBD binding of 2nd Ab after 1st Ab (heat map): 1.3
[2]
  RBD binding of 2nd Ab after 1st Ab (heat map): 0.5
[3]
  RBD binding of 2nd Ab after 1st Ab (heat map): 1.5
[4]
  RBD binding of 2nd Ab after 1st Ab (heat map): 0.4
[5]
  RBD binding of 2nd Ab after 1st Ab (heat map): 0.8
[6]
  RBD binding of 2nd Ab after 1st Ab (heat map): 1.4
[7]
  RBD binding of 2nd Ab after 1st Ab (heat map): 1.5

B3: mAb 82 (antibody, V domains shown)
VH: QVQLVQSGAEVKKPGASVKVSCKASGGSFSTSAFYWVRQAPGQGLEWMGWINPYTGGTNYAQKFQGRVTMTRDTSTSTVYMELSSLRSEDTAVYYCARSRALYGSGSYFDYWGQGTLVTVSS
VL: DIQMTQSPSSLSASVGDRVTITCRASQVISNYLAWYQQKPGKAPKLLIYDASNLETGVPSRFSGSGSGTDFTLTISSLQPEDFATYYCQQSFSPPPTFGQGTRLEIKR
notes: also called IgG 82; Antibody 82
[1]
  RBD binding of 2nd Ab after 1st Ab (heat map): 0.6
[2]
  RBD binding of 2nd Ab after 1st Ab (heat map): 1.4
[3]
  RBD binding of 2nd Ab after 1st Ab (heat map): 0.6
[4]
  RBD binding of 2nd Ab after 1st Ab (heat map): 0.6
[5]
  RBD binding of 2nd Ab after 1st Ab (heat map): 0.4
[6]
  RBD binding of 2nd Ab after 1st Ab (heat map): 0.5
[7]
  RBD binding of 2nd Ab after 1st Ab (heat map): 0.8
[8]
  Kd: 206 nM
[9]
  Kd: 206 nM

B4: mAb 324 (antibody, V domains shown)
VH: QVQLVQSGAEVKKPGASVKVSCKASGGTFNNYGISWVRQAPGQGLEWMGWMNPNSGNTGYAQKFQGRVTMTRDTSTSTVYMELSSLRSEDTAVYYCARVGDYGDYIVSPFDLWGRGTLVTVSS
VL: DIQMTQSPSSLSASVGDRVTITCRASQSITTYLNWYQQKPGKAPKLLIYDASNLETGVPSRFSGSGSGTDFTLTISSLQPEDFATYYCQQSYSTPPTFGQGTKVEIKR
notes: also called IgG 324; Antibody 324
[1]
  RBD binding of 2nd Ab after 1st Ab (heat map): 0.1
[2]
  RBD binding of 2nd Ab after 1st Ab (heat map): 1.2
[3]
  RBD binding of 2nd Ab after 1st Ab (heat map): 0.3
[4]
  RBD binding of 2nd Ab after 1st Ab (heat map): 1
[5]
  RBD binding of 2nd Ab after 1st Ab (heat map): 0.2
[6]
  RBD binding of 2nd Ab after 1st Ab (heat map): 0.2
[7]
  RBD binding of 2nd Ab after 1st Ab (heat map): 0.4
[8]
  Kd: 111 nM
[9]
  Kd: 111 nM

B5: mAb 56 (antibody, V domains shown)
VH: QVQLVQSGAEVKKPGASVKVSCKASGYTFTSYGISWVRQAPGQGLEWMGWISAYNGNTNYAQKLQGRVTMTRDTSTSTVYMELSSLRSEDTAVYYCARDIGPIDYWGQGTLVTVSS
VL: DIQMTQSPSSLSASVGDRVTITCRASQGISSYLAWYQQKPGKAPKLLIYDASNLQSGVPSRFSGSGSGTDFTLTISSLQPEDFATYYCQQANSFPSTFGQGTKVEIKR
notes: also called IgG 56; Antibody 56
[8]
  Kd: 23 nM
[9]
  Kd: 23 nM

B6: mAb 64 (antibody, V domains shown)
VH: EVQLLESGGGLVQPGGSLRLSCAASGFPFSQHGMHWVRQAPGKGLEWVSAIDRSGSYIYYADSVKGRFTISRDNSKNTLYLQMNSLRAEDTAVYYCARDTYGGKVTYFDYWGQGTLVTVSS
VL: DIQMTQSPSSLSASVGDRVTITCRASQGISSHLAWYQQKPGKAPKLLIYDASNLETGVPSRFSGSGSGTDFTLTISSLQPEDFATYYCQQTYSTPWTFGQGTKVEIKR
notes: also called IgG 64; Antibody 64
[8]
  Kd: 97 nM
[9]
  Kd: 97 nM

B7: mAb 349 (antibody, V domains shown)
VH: EVQLLESGGGLVQPGGSLRLSCAASGFTFSNYGMHWVRQAPGKGLEWVSGISSAGSITNYADSVKGRFTISRDNSKNTLYLQMNSLRAEDTAVYYCAGNHAGTTVTSEYFQHWGQGTLVTVSS
VL: DIQMTQSPSSLSASVGDRVTITCRASQSISSWLAWYQQKPGKAPKLLIYDTSNLETGVPSRFSGSGSGTDFTLTISSLQPEDFATYYCQQSYTTPWTFGQGTRLEIKR
notes: also called IgG 349; Antibody 349
[8]
  Kd: 74 nM
[9]
  Kd: 74 nM

B8: 4A8 IgG (antibody, V domains shown)
VH: EVQLVESGAEVKKPGASVKVSCKVSGYTLTELSMHWVRQAPGKGLEWMGGFDPEDGETMYAQKFQGRVTMTEDTSTDTAYMELSSLRSEDTAVYYCATSTAVAGTPDLFDYYYGMDVWGQGTTVTVSS
VL: EIVMTQSPLSSPVTLGQPASISCRSSQSLVHSDGNTYLSWLQQRPGQPPRLLIYKISNRFSGVPDRFSGSGAGTDFTLKISRVEAEDVGVYYCTQATQFPYTFGQGTKVDIK
notes: also called IgG 4A8
[10]
  Kd: 1.42 nM
  koff: 0.000191 s⁻¹
  kon: 133000 M⁻¹ s⁻¹

B9: mAb 178 (antibody, V domains shown)
VH: QVQLVQSGAEVKKPGASVKVSCKASGYTFTDYHMHWVRQAPGQGLEWMGWINPNSGGTNYAQKFQGRVTMTRDTSTSTVYMELSSLRSEDTAVYYCARDISSWYEITKFDPWGQGTLVTVSS
VL: EIVMTQSPATLSVSPGERATLSCKASQSVSGTYLAWYQQKPGQAPRLLIYGASTRATGIPARFSGSGSGTEFTLTISSLQSEDFAVYYCLQTHSYPPTFGQGTKVEIKR
notes: also called IgG 178; Antibody 178
[8]
  Kd: 72 nM
[9]
  Kd: 72 nM

B10: mAb 108 (antibody, V domains shown)
VH: QVQLVQSGAEVKKPGASVKVSCKASGYIFSRYAIHWVRQAPGQGLEWMGWMNPISGNTDYAPNFQGRVTMTRDTSTSTVYMELSSLRSEDTAVYYCAKDGSQLAYLVEYFQHWGQGTLVTVSS
VL: DIQMTQSPSSLSASVGDRVTITCRASQVITNNLAWYQQKPGKAPKLLIYDASTLETGVPSRFSGSGSGTDFTLTISSLQPEDFATYYCQQSYTFPYTFGQGTKVEIKR
[8]
  Kd: 72 nM
[9]
  Kd: 72 nM

B11: mAb 128 (antibody, V domains shown)
VH: QVQLVQSGAEVKKPGASVKVSCKASGYTFTHYYMHWVRQAPGQGLEWMGIINPSSSSASYSQKFQGRVTMTRDTSTSTVYMELSSLRSEDTAVYYCARDGRYGSGSYPFDYWGQGTLVTVSS
VL: DIQMTQSPSSLSASVGDRVTITCRASQNISRYLNWYQQKPGKAPKLLIYDASNLETGVPSRFSGSGSGTDFTLTISSLQPEDFATYYCQQANGFPPTFGQGTKLEIKR
[8]
  Kd: 57 nM
[9]
  Kd: 57 nM

B12: mAb 160 (antibody, V domains shown)
VH: QVQLVQSGAEVKKPGASVKVSCKASGYTFTGHDMHWVRQAPGQGLEWMGIINPSGGSTSYAQKFQGRVTMTRDTSTSTVYMELSSLRSEDTAVYYCARANSLRYYYGMDVWGQGTMVTVSS
VL: DIQMTQSPSSLSASVGDRVTITCRASQSVSSWLAWYQQKPGKAPKLLIYAASSLQSGVPSRFSGSGSGTDFTLTISSLQPEDFATYYCQQGYTTPYTFGQGTKLEIKR
notes: also called IgG 160; Antibody 160
[8]
  Kd: 7.7 nM
[9]
  Kd: 7.7 nM

B13: mAb 158 (antibody, V domains shown)
VH: QVQLVQSGAEVKKPGASVKVSCKASGYTFTGYYMHWVRQAPGQGLEWMGWINPLNGGTNFAPKFQGRVTMTRDTSTSTVYMELSSLRSEDTAVYYCARDPGGSYSNDAFDIWGQGTLVTVSS
VL: DIQMTQSPSSLSASVGDRVTITCRASQSISRYLNWYQQKPGKAPKLLIYDASNLESGVPSRFSGSGSGTDFTLTISSLQPEDFATYYCQQANSFPLTFGGGTKVDIKR
notes: also called IgG 158; Antibody 158
[8]
  Kd: 172 nM
[9]
  Kd: 172 nM

B14: mAb 254 (antibody, V domains shown)
VH: EVQLLESGGGLVQPGGSLRLSCAASGFTFSSSAMHWVRQAPGKGLEWVSAIGTGGDTYYADSVKGRFTISRDNSKNTLYLQMNSLRAEDTAVYYCAREGDGYNFYFDYWGQGTLVTVSS
VL: DIQMTQSPSSLSASVGDRVTITCRASQGISSYLAWYQQKPGKAPKLLIYDASSLQIGVPSRFSGSGSGTDFTLTISSLQPEDFATYYCLQSYSTPPWTFGQGTKVEIKR
notes: also called IgG 254; Antibody 254
[8]
  Kd: 127 nM
[9]
  Kd: 127 nM

B15: mAb 120 (antibody, V domains shown)
VH: QVQLVQSGAEVKKPGASVKVSCKASGYTFTSYDINWVRQAPGQGLEWMGMIDPSGGSTSYAQKFQGRVTMTRDTSTSTVYMELSSLRSEDTAVYYCAKDFGGGTRYDYWYFDLWGRGTLVTVSS
VL: EIVMTQSPATLSVSPGERATLSCRASQSVSSRYLAWYQQKPGQAPRLLIYGASTRATGIPARFSGSGSGTEFTLTISSLQSEDFAVYYCQQYYTTPRTFGQGTRLEIKR
notes: also called IgG 120; Antibody 120
[8]
  Kd: 24 nM
[9]
  Kd: 24 nM
